Results from patent publication US20190248900A1 (Y BIOLOGICS, published 2019).

Assays:
Test in all cases: ELISA
GREM1 = molecular target: T1, GREM1 (Homo sapiens (Human), UniProt O60565 25-184)
T1 sequence: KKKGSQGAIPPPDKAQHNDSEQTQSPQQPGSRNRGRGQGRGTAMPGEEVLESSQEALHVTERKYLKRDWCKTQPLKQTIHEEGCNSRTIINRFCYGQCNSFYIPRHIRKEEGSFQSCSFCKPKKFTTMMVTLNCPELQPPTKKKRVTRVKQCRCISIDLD

TMED1 = molecular target: T2, TMED1 (Homo sapiens (Human), UniProt Q13445 24-194)
T2 sequence: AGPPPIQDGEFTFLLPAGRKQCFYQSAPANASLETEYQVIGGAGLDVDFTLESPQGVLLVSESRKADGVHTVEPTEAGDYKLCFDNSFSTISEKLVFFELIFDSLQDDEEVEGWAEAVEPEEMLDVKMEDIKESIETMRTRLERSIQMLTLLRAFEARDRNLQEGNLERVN

SOST = molecular target: T3, SOST (Homo sapiens (Human), UniProt Q9BQB4 24-213)
T3 sequence: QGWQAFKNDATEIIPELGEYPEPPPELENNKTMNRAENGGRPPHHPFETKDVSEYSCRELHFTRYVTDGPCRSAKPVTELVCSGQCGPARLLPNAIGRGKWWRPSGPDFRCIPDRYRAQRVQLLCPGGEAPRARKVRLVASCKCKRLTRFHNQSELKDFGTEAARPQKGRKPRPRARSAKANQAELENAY

AGR2 = molecular target: T4, AGR2 (Homo sapiens (Human), UniProt O95994 21-175)
T4 sequence: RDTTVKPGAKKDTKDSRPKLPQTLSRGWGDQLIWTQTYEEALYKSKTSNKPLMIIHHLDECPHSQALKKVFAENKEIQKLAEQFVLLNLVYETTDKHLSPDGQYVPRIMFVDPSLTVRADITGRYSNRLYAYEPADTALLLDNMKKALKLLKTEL

MICA = MICA (Homo sapiens (Human), UniProt Q29983 24-307)
Sequence of MICA (Q29983 24-307 limits assumed): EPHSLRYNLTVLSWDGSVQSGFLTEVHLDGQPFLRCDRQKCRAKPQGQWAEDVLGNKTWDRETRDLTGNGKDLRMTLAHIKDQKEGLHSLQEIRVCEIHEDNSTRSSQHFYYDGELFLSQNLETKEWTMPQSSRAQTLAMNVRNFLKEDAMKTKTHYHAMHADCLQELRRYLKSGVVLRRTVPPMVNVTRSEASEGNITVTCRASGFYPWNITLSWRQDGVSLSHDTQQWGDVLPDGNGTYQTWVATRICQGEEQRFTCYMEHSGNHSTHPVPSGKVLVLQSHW

ICOSLG = molecular target: T5, ICOSLG (Homo sapiens (Human), UniProt O75144 19-256)
T5 sequence: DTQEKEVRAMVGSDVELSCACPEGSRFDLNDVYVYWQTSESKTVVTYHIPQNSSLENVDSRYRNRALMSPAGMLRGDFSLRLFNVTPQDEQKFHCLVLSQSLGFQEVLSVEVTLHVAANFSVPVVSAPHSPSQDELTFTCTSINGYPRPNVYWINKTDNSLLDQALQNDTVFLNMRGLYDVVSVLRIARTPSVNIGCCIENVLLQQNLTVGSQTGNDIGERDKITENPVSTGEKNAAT

TLR3 = TLR3 (Homo sapiens (Human), UniProt O15455 24-704)
FZD10 = molecular target: T6, FZD10 (Homo sapiens (Human), UniProt Q9ULW2 21-225)
T6 sequence: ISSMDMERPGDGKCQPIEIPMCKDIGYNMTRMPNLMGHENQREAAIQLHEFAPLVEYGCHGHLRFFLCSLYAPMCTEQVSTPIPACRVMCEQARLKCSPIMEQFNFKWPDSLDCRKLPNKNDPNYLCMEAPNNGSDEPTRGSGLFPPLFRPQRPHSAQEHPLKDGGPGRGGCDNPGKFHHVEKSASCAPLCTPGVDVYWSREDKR

SUSD1 = SUSD1 (Homo sapiens (Human), UniProt Q6UWL2 30-721)
Sequence of SUSD1 (Q6UWL2 30-721 limits assumed): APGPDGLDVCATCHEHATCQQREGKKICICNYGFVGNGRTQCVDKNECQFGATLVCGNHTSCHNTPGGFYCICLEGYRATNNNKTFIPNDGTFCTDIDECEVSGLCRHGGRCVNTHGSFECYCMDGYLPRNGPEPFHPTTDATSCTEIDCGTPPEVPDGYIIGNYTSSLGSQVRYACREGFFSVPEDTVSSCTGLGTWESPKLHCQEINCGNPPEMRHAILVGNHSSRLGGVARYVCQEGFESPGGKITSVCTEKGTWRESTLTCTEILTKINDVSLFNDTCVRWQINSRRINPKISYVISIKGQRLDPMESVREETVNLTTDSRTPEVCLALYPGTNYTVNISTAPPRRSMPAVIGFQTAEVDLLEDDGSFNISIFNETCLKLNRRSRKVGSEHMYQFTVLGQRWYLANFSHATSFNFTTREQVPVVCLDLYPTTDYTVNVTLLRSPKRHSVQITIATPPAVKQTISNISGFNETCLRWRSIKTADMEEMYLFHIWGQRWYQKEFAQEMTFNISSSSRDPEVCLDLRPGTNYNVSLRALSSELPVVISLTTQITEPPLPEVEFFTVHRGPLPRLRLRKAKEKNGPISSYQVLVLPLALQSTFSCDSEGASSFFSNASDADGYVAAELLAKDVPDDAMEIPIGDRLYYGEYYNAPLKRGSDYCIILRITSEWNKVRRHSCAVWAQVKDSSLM

FSTL3 = molecular target: T7, FSTL3 (Homo sapiens (Human), UniProt O95633 27-263)
T7 sequence: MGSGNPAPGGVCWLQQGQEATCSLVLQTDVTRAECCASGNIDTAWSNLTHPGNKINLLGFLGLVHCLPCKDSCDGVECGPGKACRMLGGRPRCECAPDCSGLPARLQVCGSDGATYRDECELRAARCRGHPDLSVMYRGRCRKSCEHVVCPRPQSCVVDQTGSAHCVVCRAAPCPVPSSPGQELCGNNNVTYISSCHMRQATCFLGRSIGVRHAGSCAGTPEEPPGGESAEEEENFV

DNER = molecular target: T8, DNER (Homo sapiens (Human), UniProt Q8NFT8 35-640)
T8 sequence: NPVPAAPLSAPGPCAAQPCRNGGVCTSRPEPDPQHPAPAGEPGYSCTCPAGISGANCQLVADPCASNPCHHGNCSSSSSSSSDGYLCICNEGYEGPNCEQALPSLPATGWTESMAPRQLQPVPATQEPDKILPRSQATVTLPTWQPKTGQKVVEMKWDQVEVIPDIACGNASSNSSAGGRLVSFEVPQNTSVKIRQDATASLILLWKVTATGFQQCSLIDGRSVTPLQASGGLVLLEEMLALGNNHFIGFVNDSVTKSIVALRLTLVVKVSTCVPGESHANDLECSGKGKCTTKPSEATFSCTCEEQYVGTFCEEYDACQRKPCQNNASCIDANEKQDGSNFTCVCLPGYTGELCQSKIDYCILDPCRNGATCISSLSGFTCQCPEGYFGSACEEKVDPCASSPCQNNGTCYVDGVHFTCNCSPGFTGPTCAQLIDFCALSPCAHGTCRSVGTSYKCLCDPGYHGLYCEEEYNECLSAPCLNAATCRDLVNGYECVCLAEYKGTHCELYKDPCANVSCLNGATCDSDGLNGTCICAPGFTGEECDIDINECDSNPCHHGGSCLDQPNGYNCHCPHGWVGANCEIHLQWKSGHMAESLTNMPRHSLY

CFC1 = CFC1 (Homo sapiens (Human), UniProt P0CG37 26-158)
Sequence of CFC1 (P0CG37 26-158 limits assumed): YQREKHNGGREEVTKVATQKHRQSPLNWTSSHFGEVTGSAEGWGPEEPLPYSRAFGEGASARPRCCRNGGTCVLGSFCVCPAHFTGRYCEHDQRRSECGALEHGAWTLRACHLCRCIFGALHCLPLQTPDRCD

Measured: binding result

B1: PD1-41C9 (antibody, V domains shown)
VH: QMQLVESGGGVVQPGRSLRLSCAASGFTFSSYAMHWVRQAPGKGLEWVAVISYDGSNKYYADSVKGRFTISRDNSKNTLYLQMNRLRSEDTAVYYCTTTTFDSWGQGTLITVSS
VL: DIVMTQTPLSLPVTPGEAASISCRSSQSLLDSEDGNTYLDWYLQKPGQSPQLLIYTLSHRASGVPDRFSGSGSGTDFTLKISRVAAEDVGLYYCLQRMGFPYTFGQGTKLDIK
notes: scFv-phage in the screening ELISA; whole IgG in the other assays
no binding (tested: 1 ug/ml): GREM1 | TMED1 | SOST | AGR2 | MICA | ICOSLG | TLR3 | FZD10 | SUSD1 | FSTL3 | DNER | CFC1

B2: PD1-49A2 (antibody, V domains shown)
VH: QVQLVESGGGVVQPGRSLRLSCAASGFTFSSYAMHWVRQAPGKGLEWVAVISYDGSNKYYADSVKGRFTISRDNPKNTLYLQMNSLRAEDTAVYYCTTTTFDSWGRGTLVTVSS
VL: DIVMTQSPLSLPVTPGEPASISCRSSQSLFDSDDGNTYLDWYLQKPGQSPQLLIYTLSHRASGVPDRFSGSGSGTDFTLKISRVEAEDVGIYYCLQRMGFPYTFGQGTKVEIK
notes: scFv-phage in the screening ELISA; whole IgG in the other assays; also called Parent 49A2
no binding (tested: 1 ug/ml): GREM1 | TMED1 | SOST | AGR2 | MICA | ICOSLG | TLR3 | FZD10 | SUSD1 | FSTL3 | DNER | CFC1

B3: PD1-45D6 (antibody, V domains shown)
VH: QVQLVESGGGVVQPGRSLRLSCAASGFTFSSYAMHWVRQVPGKGLEWVAVISYDGNDKYYADSVKGRFTISRDNSKNTLYLQMNSLRAEDTAVYYCVPTTFEYWGQGSQVTVSS
VL: DIVMTQTPLSLPVTPGEAASISCRSSQSLLDSDDGKTYLDWYLQKPGQSPQLLIYTLSYRASGVPDRFSGSGSGTEFNLRISRVEAEDVGIYYCMQRVEFPFTFGQGTKLDIK
notes: as for B1
no binding (tested: 1 ug/ml): GREM1 | TMED1 | SOST | AGR2 | MICA | ICOSLG | TLR3 | FZD10 | SUSD1 | FSTL3 | DNER | CFC1
